Measurements: article PMC7688639, “Biased localization of actin binding proteins by actin filament conformation” (Nature Communications, 2020)
Numbering of substitutions follows the chain as printed. Names may count otherwise.

B1: actin-binding domain of human utrophin (CH1–CH2, AA 1–261) (domain or fragment)
chain: MAKYGEHEASPDNGQNEFSDIIKSRSDEHNDVQKKTFTKWINARFSKSGKPPINDMFTDLKDGRKLLDLLEGLTGTSLPKERGSTRVHALNNVNRVLQVLHQNNVELVNIGGTDIVDGNHKLTLGLLWSIILHWQVKDVMKDVMSDLQQTNSEKILLSWVRQTTRPYSQVNVLNFTTSWTDGLAFNAVLHRHKPDLFSWDKVVKMSPIERLEHAFSKAQTYLGIEKLLDPEDVAVQLPDKKSIIMYLTSLFEVLPQQVTIDGGSGKCKSA
modifications: maleimide dye on the C-terminal KCK linker (Alexa-488 C5, Alexa-555 C2 or Alexa-647 C2 maleimide; Alexa-555 named as the dye of the dwell-time experiments)
notes: KCK linker on the C terminus for maleimide labelling; both cleaved by TEV; also called utrnWT; utrn ABD; source: E. coli BL21 (DE3) pLysS, purified (IMAC, TEV cleavage, size exclusion chromatography); not shown: His10, N-terminal, cleaved; z-tag, N-terminal, cleaved
B2: utrophin actin-binding domain Q33A T36A G125A L132A (domain or fragment)
chain: B1 chain with Q33A, T36A, G125A, L132A
modifications: maleimide dye on the C-terminal KCK linker (Alexa-488 C5, Alexa-555 C2 or Alexa-647 C2 maleimide; Alexa-555 named as the dye of the dwell-time experiments)
notes: KCK linker on the C terminus for maleimide labelling; also called utrnSF; source: E. coli BL21 (DE3) pLysS, purified (IMAC, TEV cleavage, size exclusion chromatography); not shown: His10, N-terminal, cleaved; z-tag, N-terminal, cleaved
B3: utrophin actin-binding domain Q33A T36A K121A (domain or fragment)
chain: B1 chain with Q33A, T36A, K121A
modifications: maleimide dye on the C-terminal KCK linker (Alexa-488 C5, Alexa-555 C2 or Alexa-647 C2 maleimide; Alexa-555 named as the dye of the dwell-time experiments)
notes: KCK linker on the C terminus for maleimide labelling; also called utrnLAM; source: E. coli BL21 (DE3) pLysS, purified (IMAC, TEV cleavage, size exclusion chromatography); not shown: His10, N-terminal, cleaved; z-tag, N-terminal, cleaved

Tests used:
[1] = biological target: T1, actin filaments (F-actin) polymerised from rabbit muscle actin (rabbit, UniProt P68135 1-377); assay: single-molecule TIRF binding kinetics (dwell times); actin filaments tethered to a PEG/biotin-PEG coverslip by streptavidin and biotin-phalloidin; labelled binding domain in solution at ~0.05–0.1 nM; 25 mM imidazole, 25 mM KCl, 4 mM MgCl2, 1 mM EGTA, 1 mM DTT, pH 7.4, 10 µg/mL beta casein; double exponential fit of the CDF, bleaching corrected; conditions: both partners purified
[2] = biological target: T1, actin filaments (F-actin) polymerised …; assay: single-molecule TIRF binding kinetics (on-rate); tethered actin filaments; frequency of binding events for a range of concentrations of actin-binding domain, linear regression of frequency against concentration; conditions: both partners purified

| Binder | average dwell time (τav) [1] [s] | ratio of the two dwell-time scales (τ2/τ1) [1] | kon [2] [M⁻¹ s⁻¹] |
| --- | --- | --- | --- |
| B1 | ~1.1 | 18.3 | 2.2e+06 ± 300000 |
| B2 | ~4.6 |  | 5e+06 ± 2e+06 |
| B3 | ~1.3 | 9.6 | 2.4e+06 ± 300000 |
